Laboratory results published in patent US20200024330A1.

Key:
[1] = target: HIV-1 Env of isolate MG RM-AG-006 (HIV-1); test: cell-based or functional assay
[2] = target: HIV-1 94UG103 Env (pseudovirus) (HIV-1); test: cell-based or functional assay
[3] = target: HIV-1 MGRM-D-001 envelope glycoprotein (Env) on pseudovirus (HIV-1); test: cell-based or functional assay
[4] = target: HIV-1 JRFL Env (pseudovirus) (HIV-1); test: cell-based or functional assay
[5] = target: HIV-1 MGRM-C-026 Env (pseudovirus) (HIV-1); test: cell-based or functional assay
[6] = target: HIV-1 Env of isolate 93MW959 (pseudovirus) (HIV-1 isolate 93MW959, subtype C); test: cell-based or functional assay
[7] = target: aMLV envelope on pseudovirus (negative control); test: cell-based or functional assay
[8] = target: HIV-1 envelope glycoprotein (Env) of isolate MGRM-C-019, on pseudovirus (HIV-1); test: cell-based or functional assay
[9] = target: HIV-1 envelope glycoprotein (Env) of isolate MGRM-C-027, on pseudovirus (HIV-1); test: cell-based or functional assay
[10] = target: aMLV envelope protein (on pseudovirus, negative control) (aMLV); test: cell-based or functional assay
[11] = target: HIV-1 envelope glycoprotein (Env) of isolate MGRM-C-017, on pseudovirus (HIV-1); test: cell-based or functional assay
[12] = target: HIV-1 NL43 Env (on pseudovirus) (HIV-1); test: cell-based or functional assay
[13] = target: HIV-1 MGRM-D-001 Env (on pseudovirus) (HIV-1); test: cell-based or functional assay
[14] = target: HIV-1 JRFL Env (on pseudovirus) (HIV-1); test: cell-based or functional assay
[15] = target: HIV-1 MGRM-C-027 Env (on pseudovirus) (HIV-1); test: cell-based or functional assay
[16] = target: HIV-1 envelope glycoprotein (Env) of isolate MGRM-C-022, on pseudovirus (HIV-1); test: cell-based or functional assay
[17] = target: HIV-1 92UG005 Env (on pseudovirus) (HIV-1); test: cell-based or functional assay
[18] = target: WT JR-FL gp120 (HIV-1 (isolate JR-FL)); test: ELISA on coated gp120; EC50 by nonlinear regression
[19] = target: JR-FL gp120 ΔV1/ΔV2 (HIV-1 (isolate JR-FL)); test: as above
[20] = target: HIV-1 APV13 envelope glycoprotein (Env) (HIV-1); test: cell-based or functional assay
[21] = target: HIV-1 Env of isolate VLGCA1 (HIV-1); test: cell-based or functional assay
[22] = target: HIV-1 JR-CSF Env K343A (HIV-1 isolate JR-CSF) (UniProt P20871); test: cell-based or functional assay
[23] = target: HIV-1 JR-CSF Env N295A (HIV-1 JR-CSF) (UniProt P20871); test: cell-based or functional assay
[24] = target: HIV-1 JR-CSF Env T388A (HIV-1 (isolate JR-CSF)) (UniProt P20871); test: cell-based or functional assay
[25] = target: HIV-1 Env of isolate MGRM-A-008 (HIV-1); test: cell-based or functional assay
[26] = target: HIV-1 JR-CSF Env N339A (HIV-1 isolate JR-CSF) (UniProt P20871); test: cell-based or functional assay
[27] = target: HIV-1 APV6 envelope glycoprotein (Env) (HIV-1); test: cell-based or functional assay
[28] = target: HIV-1 JR-CSF Env S199A (HIV-1 JR-CSF) (UniProt P20871); test: cell-based or functional assay
[29] = target: HIV-1 Env of isolate MGRM-A-005 (HIV-1); test: cell-based or functional assay
[30] = target: HIV-1 JR-CSF Env I309A (HIV-1 JR-CSF) (UniProt P20871); test: cell-based or functional assay
[31] = target: HIV-1 JR-CSF Env F317A (HIV-1 isolate JR-CSF) (UniProt P20871); test: cell-based or functional assay
[32] = target: HIV-1 JR-CSF Env K421A (HIV-1 (isolate JR-CSF)) (UniProt P20871); test: cell-based or functional assay
[33] = target: HIV-1 Env of isolate MGRM-A-009 (HIV-1); test: cell-based or functional assay
[34] = target: HIV-1 JR-CSF Env S306A (HIV-1 JR-CSF) (UniProt P20871); test: cell-based or functional assay
[35] = target: HIV-1 JR-CSF Env N301A (HIV-1 JR-CSF) (UniProt P20871); test: cell-based or functional assay
[36] = target: HIV-1 MGRM-C-028 envelope glycoprotein (Env) (HIV-1); test: cell-based or functional assay
[37] = target: HIV-1 Env of isolate MGRM-C-027 (subtype C), on pseudovirus (HIV-1); test: cell-based or functional assay
[38] = target: HIV-1 Env of isolate MGRM-D-024 (HIV-1); test: cell-based or functional assay
[39] = target: HIV-1 envelope glycoprotein (Env) of isolate MGRM-Chronic-B-012, on pseudovirus (HIV-1); test: cell-based or functional assay
[40] = target: HIV-1 93IN905 envelope protein (Env) on pseudotyped virus (HIV-1 isolate 93IN905); test: cell-based or functional assay
[41] = target: HIV-1 92BR020 envelope protein (Env) on pseudotyped virus (HIV-1 isolate 92BR020); test: cell-based or functional assay
[42] = target: HIV-1 APV-17 envelope glycoprotein (Env) on pseudovirus (HIV-1); test: cell-based or functional assay

5141_B17 (PGT-126) (antibody)
neutralization IC50 [1]: 0.01 µg/mL | IC50 [2]: 0.0091 µg/mL | IC80 [2]: 0.0316 µg/mL | IC90 [2]: 0.0655 µg/mL | IC95 [2]: 0.128 µg/mL | IC50 (ug/ml), neutralizing activity [3]: 0.0639 µg/mL | IC50 [4]: 0.014 µg/mL | IC80 [4]: 0.0454 µg/mL | IC90 [4]: 0.09 µg/mL | IC95 [4]: 0.169 µg/mL | IC50 [5]: 0.0076 µg/mL | IC80 [5]: 0.0345 µg/mL | IC90 [5]: 0.0831 µg/mL | IC95 [5]: 0.185 µg/mL | IC50 (µg/mL) neutralization [6]: 9.44 µg/mL

5123_A06 (PGT-125) (antibody)
neutralization IC50 [1]: 0.008 µg/mL | IC50 (ug/ml), neutralizing activity [3]: 2.31 µg/mL | neutralization IC50 [3]: 2.31 µg/mL | neutralization IC80 [3]: > 10 µg/mL | neutralization IC90 [3]: > 10 µg/mL | neutralization IC95 [3]: > 10 µg/mL | IC50 (µg/mL) neutralization [6]: 37.5 µg/mL | neutralization IC50 [7]: > 10 µg/mL | neutralization IC80 [7]: > 10 µg/mL | neutralization IC90 [7]: > 10 µg/mL | neutralization IC95 [7]: > 10 µg/mL

PGT-143 (4980_N08) (antibody)
IC50, pseudovirus neutralization [8]: 0.004 µg/mL | IC50, pseudovirus neutralization [9]: 0.598 µg/mL | IC50 (ug/ml), pseudovirus neutralization [10]: > 10 µg/mL | IC50, pseudovirus neutralization [11]: 5.17 µg/mL | IC50 (ug/ml), pseudovirus neutralization [12]: 0.585 µg/mL | IC50 (ug/ml), pseudovirus neutralization [13]: > 10 µg/mL | IC50 (ug/ml), pseudovirus neutralization [14]: > 10 µg/mL | IC50 (ug/ml), pseudovirus neutralization [15]: 0.505 µg/mL | IC50, pseudovirus neutralization [16]: 0.103 µg/mL | IC50 (ug/ml), pseudovirus neutralization [17]: > 10 µg/mL

PGT-122 (antibody)
EC50 [18]: 0.3 µg/mL | EC50 [19]: 0.3 µg/mL | IC50 neutralization [20]: 0.992 µg/mL | IC50 (µg/mL), pseudovirus neutralization [21]: > 50 µg/mL | Fold IC50 increase relative to wild-type [22]: 0.3 fold | Fold IC50 increase relative to wild-type [23]: 0.7 fold | Fold IC50 increase relative to wild-type [24]: 0.3 fold | IC50 (µg/mL), pseudovirus neutralization [25]: > 50 µg/mL | Fold IC50 increase relative to wild-type [26]: 0.4 fold | IC50 neutralization [27]: 0.0851 µg/mL | Fold IC50 increase relative to wild-type [28]: 1 fold | IC50 (µg/mL), pseudovirus neutralization [29]: > 50 µg/mL | Fold IC50 increase relative to wild-type [30]: 2.1 fold | Fold IC50 increase relative to wild-type [31]: 3.4 fold | Fold IC50 increase relative to wild-type [32]: 1.2 fold | IC50 (µg/mL), pseudovirus neutralization [33]: 0.012 µg/mL | Fold IC50 increase relative to wild-type [34]: 0.5 fold | Fold IC50 increase relative to wild-type [35]: 0.4 fold | IC50 neutralization [36]: 2.06 µg/mL

PGT-142 (4995_E20) (antibody)
IC50, pseudovirus neutralization [8]: 0.003 µg/mL | IC50, pseudovirus neutralization [9]: 0.792 µg/mL | IC50 (ug/ml), pseudovirus neutralization [10]: > 10 µg/mL | IC50, pseudovirus neutralization [11]: 1.11 µg/mL | IC50 (ug/ml), pseudovirus neutralization [12]: 0.712 µg/mL | IC50 (ug/ml), pseudovirus neutralization [13]: > 10 µg/mL | IC50 (ug/ml), pseudovirus neutralization [14]: > 10 µg/mL | IC50 (ug/ml), pseudovirus neutralization [15]: 0.272 µg/mL | IC50, pseudovirus neutralization [16]: 0.086 µg/mL | IC50 (ug/ml), pseudovirus neutralization [17]: > 10 µg/mL

PGV04 (antibody)
IC50 (µg/mL), pseudovirus neutralization [37]: 2.76 µg/mL | IC50 (µg/mL), pseudovirus neutralization [21]: 0.024 µg/mL | IC50 (µg/mL), pseudovirus neutralization [38]: > 50 µg/mL | IC50 [25]: 0.555 µg/mL | IC50, pseudovirus neutralization [39]: > 50 µg/mL | IC50 [29]: 0.134 µg/mL | IC50 [33]: 0.033 µg/mL

1443_C16 (PG16) (TCN-116) (antibody)
IC50, pseudovirus neutralization, 1 hour Virus/Ab Incubation [40]: 0.33 µg/mL | IC50, pseudovirus neutralization, 18 hour Virus/Ab Incubation [40]: 0.255 µg/mL | IC50, pseudovirus neutralization, 1 hour Virus/Ab Incubation [41]: > 50 µg/mL | IC50, pseudovirus neutralization, 18 hour Virus/Ab Incubation [41]: > 50 µg/mL | IC90 (pseudovirus neutralization) [42]: > 50 µg/mL

4858_P08 (PGT-123) (antibody)
neutralization IC50 [1]: 0.014 µg/mL | IC50 (ug/ml), neutralizing activity [3]: 0.215 µg/mL | IC50, pseudovirus neutralization [3]: 0.215 µg/mL | IC80, pseudovirus neutralization [3]: 0.678 µg/mL | IC90 (pseudovirus neutralization) [3]: 1.31 µg/mL | IC95, pseudovirus neutralization [3]: 2.33 µg/mL | IC50 (µg/mL) neutralization [6]: 0.011 µg/mL | IC50, pseudovirus neutralization [7]: > 10 µg/mL | IC80, pseudovirus neutralization [7]: > 10 µg/mL | IC90 (pseudovirus neutralization) [7]: > 10 µg/mL | IC95, pseudovirus neutralization [7]: > 10 µg/mL

PGT-144 (4970_K22) (antibody)
IC50, pseudovirus neutralization [8]: 0.513 µg/mL | IC50, pseudovirus neutralization [9]: > 50 µg/mL | IC50 (ug/ml), pseudovirus neutralization [10]: > 10 µg/mL | IC50, pseudovirus neutralization [11]: 23 µg/mL | IC50 (ug/ml), pseudovirus neutralization [12]: > 10 µg/mL | IC50 (ug/ml), pseudovirus neutralization [13]: > 10 µg/mL | IC50 (ug/ml), pseudovirus neutralization [14]: > 10 µg/mL | IC50 (ug/ml), pseudovirus neutralization [15]: > 10 µg/mL | IC50, pseudovirus neutralization [16]: 2.58 µg/mL | IC50 (ug/ml), pseudovirus neutralization [17]: > 10 µg/mL

VRC01 (antibody)
IC50, pseudovirus neutralization [8]: 1.13 µg/mL | IC50, pseudovirus neutralization [9]: 0.125 µg/mL | IC50, pseudovirus neutralization [38]: 0.366 µg/mL | IC50, pseudovirus neutralization [11]: 0.366 µg/mL | IC50, pseudovirus neutralization [16]: 13 µg/mL
